Source: patent US20240287172A1 (SCIRHOM, published 2024)
Changes are numbered by the printed parent chain.

T1: hiR2-FL-P533-T7 (deletion of P533) (human, UniProt Q6PJF5 1-856)
T1 construct: single residue deletion, not a substitution; on MEF-DKO cells
T1 sequence: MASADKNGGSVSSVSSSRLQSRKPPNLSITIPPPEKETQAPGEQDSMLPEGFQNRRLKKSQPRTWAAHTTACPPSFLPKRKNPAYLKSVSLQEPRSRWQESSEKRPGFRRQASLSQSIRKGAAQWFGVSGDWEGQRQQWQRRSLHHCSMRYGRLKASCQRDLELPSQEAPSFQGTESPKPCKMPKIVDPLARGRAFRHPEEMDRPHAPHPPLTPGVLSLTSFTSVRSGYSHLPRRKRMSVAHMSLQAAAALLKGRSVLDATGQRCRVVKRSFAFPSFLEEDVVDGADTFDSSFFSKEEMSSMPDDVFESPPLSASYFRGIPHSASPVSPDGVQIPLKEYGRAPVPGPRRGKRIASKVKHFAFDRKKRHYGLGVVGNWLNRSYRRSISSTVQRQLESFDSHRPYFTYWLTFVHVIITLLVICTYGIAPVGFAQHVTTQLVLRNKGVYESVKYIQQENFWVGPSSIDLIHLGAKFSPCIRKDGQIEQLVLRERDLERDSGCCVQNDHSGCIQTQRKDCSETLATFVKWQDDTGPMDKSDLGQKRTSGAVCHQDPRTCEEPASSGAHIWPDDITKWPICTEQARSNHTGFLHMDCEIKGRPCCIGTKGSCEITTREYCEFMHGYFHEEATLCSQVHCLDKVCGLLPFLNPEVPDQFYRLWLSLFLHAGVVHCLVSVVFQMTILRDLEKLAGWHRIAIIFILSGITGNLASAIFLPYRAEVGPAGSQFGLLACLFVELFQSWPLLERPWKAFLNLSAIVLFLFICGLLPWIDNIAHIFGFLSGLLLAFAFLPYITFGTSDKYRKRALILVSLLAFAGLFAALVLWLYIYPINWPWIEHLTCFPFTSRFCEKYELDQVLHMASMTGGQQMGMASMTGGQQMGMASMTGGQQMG

T2: dog iRhom2 full length wild type, T7-tagged (dog, UniProt Q00M95 1-827)
T2 construct: whole, on cells; on MEF-DKO cells; also called Dog-iR2-FL-WT-T7
T2 sequence: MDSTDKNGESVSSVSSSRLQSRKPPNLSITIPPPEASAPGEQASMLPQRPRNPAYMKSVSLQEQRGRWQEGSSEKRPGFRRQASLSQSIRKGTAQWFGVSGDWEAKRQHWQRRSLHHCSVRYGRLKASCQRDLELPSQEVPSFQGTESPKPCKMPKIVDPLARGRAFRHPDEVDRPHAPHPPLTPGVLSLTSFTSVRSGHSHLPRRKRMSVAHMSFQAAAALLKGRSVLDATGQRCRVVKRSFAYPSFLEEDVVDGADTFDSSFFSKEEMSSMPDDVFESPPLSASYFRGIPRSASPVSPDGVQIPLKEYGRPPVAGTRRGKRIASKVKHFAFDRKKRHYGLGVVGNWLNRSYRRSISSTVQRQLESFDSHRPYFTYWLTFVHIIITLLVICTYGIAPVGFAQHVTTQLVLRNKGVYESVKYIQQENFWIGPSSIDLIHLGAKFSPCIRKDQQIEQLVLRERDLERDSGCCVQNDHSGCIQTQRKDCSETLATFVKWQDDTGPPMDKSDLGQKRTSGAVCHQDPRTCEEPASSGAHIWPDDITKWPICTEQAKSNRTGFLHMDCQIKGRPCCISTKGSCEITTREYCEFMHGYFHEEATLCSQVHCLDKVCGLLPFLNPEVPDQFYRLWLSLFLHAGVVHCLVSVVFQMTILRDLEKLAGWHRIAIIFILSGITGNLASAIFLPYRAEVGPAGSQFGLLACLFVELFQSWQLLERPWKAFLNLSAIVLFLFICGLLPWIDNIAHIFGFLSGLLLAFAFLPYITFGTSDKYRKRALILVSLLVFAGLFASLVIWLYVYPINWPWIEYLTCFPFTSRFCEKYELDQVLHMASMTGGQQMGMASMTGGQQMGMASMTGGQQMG

B1: antibody 43 (antibody, V domains shown)
VH: QVALKESGPGILQPSQTLSLTCSFSGFSLSTFGMGVGWIRQSSGKGLEWLANIWWDDDKYYNPALKSRLTISKDASKNQAFLKIANVDTADTATYYCARIGNYGSNYWYFDVWGTGTTVTVSS
VL: QIVLTQSPAIMSASPGERVTMTCSANSRISYMYWYQQKPGSSPRLLIYDTSNLASGVPVRFSGSGSGTSYSLTISRMEAEDAATYNCQQWSSYPLTFGAGTKLELK
notes: mouse IgG, kappa light chain; also called clone #43; purified antibody 43
B2: antibody 44 (antibody, V domains shown)
VH: B1 VH with A3T, S42P, G44E, N52H, A75T, A80I, A85T, D91E, A98S
VL: QIVLTQSPAVMSASPGEKVTMTCTASSSVYYMYWYQQTPGSSPRLLIYDTSNLASGVPVRFSGSGSGTSYSLTISRMEAEDAATYYCQQWNTYPLTFGAGTKLELK
notes: mouse IgG, kappa light chain; also called clone #44; purified antibody 44
B3: antibody 34 (antibody, V domains shown)
VH: QVTLKESGPGILQPSQTLSLTCSFSGFSLSTFSLGVGWIRQSSGKGLEWLAHIWWDDEKYYNPALKSRLTISKDTSKNQVFLKIANVDAADTATYYCARAYYSKSYYALDYWGQGTSVTVSS
VL: DIQMTQSPSSLSASLGERVSLTCRASQEISGYLSWLQQKPDGTIKRLIYAASTLDSGVPKRFSGSRSGSDYSLAISSLESEDFADYYCLQYANFPFTFGSGTKLEIK
notes: mouse IgG, kappa light chain; also called clone #34; purified antibody 34
B4: antibody 3 (antibody, V domains shown)
VH: QVTLKESGPGILQPSQTLSLTCSFSGFSLTTFAMGIGWVRQPSGKGLEWLAHIWWDGEKYNNPVLKSRLTISKDTSKNQVFLRIANVDTPDTATYYCARISSIYYIIDNWGQGTSVTVSS
VL: DIVLTQSPATLSVTPGHSVSLSCRASQSISNNLHWYQKKSHESPRLLIKYVSQSISGIPSRFSGSGSGTDFTLSINSVETEDFGMYFCQQSYNWPLTFGAGTKLELK
notes: mouse IgG, kappa light chain; also called clone #3; purified antibody 3

Key:
[1] = target: T1, hiR2-FL-P533-T7 (deletion of P533); experiment: FACS on MEF-DKO cells
[2] = target: T2, dog iRhom2 full length wild type, …; experiment: FACS, MEF-DKO cells; via representative antibody 16
Experimental: In brief, immortalized MEF-DKO-EV control cells, MEF-DKO-rhesus-iR2-FL-WT-T7 cells, MEF-DKO-cyno-iR2-FL-WT-T7 cells, MEF-DKO-dog-iR2-FL-WT-T7 cells and MEF-DKO-rabbit-iR2-FL-WT-T7 cells, as well as their respective iRhom1 counterparts, were harvested with 10 mM EDTA in PBS, washed and resuspended in FACS buffer (PBS, 3% FBS, 0.05% sodium azide), and seeded in Nunc U-bottom 96-well plates (Thermo Fisher Scientific, USA) at approximately 3×10⁵ cells per well. To pellet cells and remove supernatants, the plates were centrifuged at 1,500 rpm and 4° C. for 3 minutes. For primary staining, cells were resuspended in 100 μl per well of either FACS buffer alone (controls), mouse monoclonal anti-T7 IgG (Merck Millipore, USA) at 3 μg/ml FACS buffer or the antibodies of the invention also at 3 μg/ml FACS buffer and incubated on ice for 1 hour.
Afterwards, plates were centrifuged at 1,500 rpm and 4° C. for 3 minutes and washed twice with 200 μl per well of FACS buffer. For secondary staining, cells were spun down and resuspended in 100 μl per well of PE-conjugated goat anti-mouse IgG F(ab′)2 detection fragment (Dianova, Germany) diluted 1:100 in FACS buffer. Protected from light, the cell suspensions were incubated on ice for 1 hour. Plates were then centrifuged at 1,500 rpm and 4° C. for 3 minutes and washed three times with 200 μl per well of FACS buffer. Finally, cells were resuspended in 150 μl per well of FACS buffer and analyzed using a BD Accuri™ C6 Plus flow cytometer (Becton Dickinson, Germany).

| Binder | binding result [1] | binding result [2] |
| --- | --- | --- |
| B1 | no binding (tested: 3 µg/ml) | binds |
| B2 | no binding (tested: 3 µg/ml) | binds |
| B3 | no binding (tested: 3 µg/ml) | binds |
| B4 | no binding (tested: 3 µg/ml) | binds |
